This passage reports apoptosis of INS-1 cells as indicated by activity of caspases 3 and 7 and cell proliferation of INS-1 cells results from patent US20130195807A1.

In the assay the target is GHRH receptor (GHRH-R) of rat insulinoma INS-1 cells (rat) (UniProt Q02644). The assay can be described thus: cell-based or functional assay.
Chain of UniProt Q02644 (Q02644 23-464): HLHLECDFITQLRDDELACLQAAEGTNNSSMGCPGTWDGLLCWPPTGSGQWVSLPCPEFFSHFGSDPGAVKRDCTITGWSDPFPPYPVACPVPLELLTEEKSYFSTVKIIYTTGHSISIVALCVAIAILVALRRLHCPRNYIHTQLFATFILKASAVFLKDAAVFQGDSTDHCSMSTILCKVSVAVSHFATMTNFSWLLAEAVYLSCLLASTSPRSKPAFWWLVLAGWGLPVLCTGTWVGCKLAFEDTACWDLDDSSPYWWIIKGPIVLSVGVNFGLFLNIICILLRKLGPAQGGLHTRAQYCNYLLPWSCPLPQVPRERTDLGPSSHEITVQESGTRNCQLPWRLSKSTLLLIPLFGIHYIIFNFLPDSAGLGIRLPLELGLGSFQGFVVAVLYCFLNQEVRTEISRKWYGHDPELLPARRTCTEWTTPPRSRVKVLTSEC

For the substance “GHRH agonist JI-36, (Dat1, Thr8, Orn12,21, Abu15, Nle27, Asp28, Agm29)hGH-RH(1-29) (peptide)”, the apoptosis of INS-1 cells as indicated by activity of caspases 3 and 7 stood at 20 % reduction; the cell proliferation of INS-1 cells came to 50 % increase.
